Substrate in this data set: CCC(=O)SCCNC(=O)CCNC(=O)[C@H](O)C(C)(C)COP(=O)(O)OP(=O)(O)OC[C@H]1O[C@@H](n2cnc3c(N)ncnc32)[C@H](O)[C@@H]1OP(=O)(O)O
The data set can be described thus: purified protein. To be noted: hydrolysis of propionyl-CoA to propionate; conditions only in supplement.

B1: HiYciA (Haemophilus influenzae Rd KW20) (protein)
chain: MSANFTDKNGRQSKGVLLLRTLAMPSDTNANGDIFGGWIMSQMDMGGAILAKEIAHGRVVTVAVESMNFIKPISVGDVVCCYGQCLKVGRSSIKIKVEVWVKKVASEPIGERYCVTDAVFTFVAVDNNGRSRTIPRENNQELEKALALISEQPL
Broadly, the Km is the concentration of substrate that gives half-maximal velocity. A word on the kcat: it is the maximal rate divided by the concentration of active sites. The kcat/Km is the second-order rate constant that governs catalysis at low substrate concentration. Regarding B1, the Km stood at 26.84 µM, the kcat worked out at 490 s⁻¹ and the kcat/Km turned out to be 1.83e+07 M⁻¹ s⁻¹.

B2: PP_4975 (Pseudomonas putida KT2440) (protein)
chain: MNFHTRKWVKPEDLNPNGTLFGGSLLRWIDEEAAIYAIVQLGNQRVVTKYMSEINFVSASRQGDIIELGITATAFGRTSITLKCEVRNKITRKSILTVDKMVFVNLGEDGLPAAHGRTEIKYVQDQFPDSAVE
B2: the Michaelis constant (Km) is given as 144.13 µM, the catalytic constant (kcat) was determined as 1300 s⁻¹ and the kcat/Km was 9.02e+06 M⁻¹ s⁻¹.

Values taken from publication PMC8085926.
